The results in this text go back to paper PMC2597217.

The target in data set [1] is FoxO1 DBD S249E (human, UniProt Q12778 151-266, S249E). The data set can be described thus: EMSA. A general note: In EMSA bound probe runs differently from free probe, usually more slowly.
The target in data set [2] is FoxO1 DBD A207C (human, UniProt Q12778 151-266, A207C). The data set can be described thus: crystal structure.
The target of data set [3] is FoxO1 DBD S184C (human, UniProt Q12778 151-266, S184C). The data set can be described thus: crystal structure.
FoxO1 DBD S184C, sequence (Q12778 151-266 S184C): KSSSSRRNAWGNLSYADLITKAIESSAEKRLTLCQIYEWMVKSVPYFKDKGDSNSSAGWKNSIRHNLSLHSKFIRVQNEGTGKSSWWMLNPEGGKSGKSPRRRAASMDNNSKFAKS

FoxO1 DBD S249E, sequence (Q12778 151-266 S249E): as the sequence (Q12778 151-266 S184C) above, with C34S, S99E counted along it
FoxO1 DBD A207C, sequence (Q12778 151-266 A207C): as the sequence (Q12778 151-266 S184C) above, with C34S, A57C counted along it

B1: DBE2 (dsDNA)
DNA 1: TCTTGTTTACATTTTG
DNA 2: CAAAATGTAAACAAGA
For the molecule B1, the binding result in data set [1] is “binds”.

B2: IRE (dsDNA)
DNA 1: TGGTTTGTTTTGCTTG
DNA 2: CAAGCAAAACAAACCA
With B2, the binding result in data set [1], in data set [2] and in data set [3] was “binds” in each case.
